From patent publication US20170089895A1
Each block holds one substance with its values, some of them ahead of it.

Tests used:
[1] = target: HNA-1c K138T modified protein (human) (UniProt O75015); assay: Luminex bead assay, protein on microbeads, PE goat anti-human IgG; reference, 1 by definition
[2] = target: HNA-1c W131F modified protein (human) (UniProt O75015); assay: as above
[3] = target: Purified HNA-3a protein (CTL2) (human) (UniProt Q8IWA5); assay: as above
[4] = target: wild type HNA-1c protein (Fc gamma receptor type IIIb, FcγRIIIb, CD16b) (human) (UniProt O75015); assay: as above
[5] = target: wild type HNA-1b protein (Fc gamma receptor type IIIb, FcγRIIIb, CD16b) (human) (UniProt O75015); assay: as above
[6] = target: wild type HNA-1a protein (Fc gamma receptor type IIIb, FcγRIIIb, CD16b) (human) (UniProt O75015); assay: as above
[7] = target: HNA-1a K138T modified protein (human) (UniProt O75015); assay: as above
[8] = target: HNA-1b K138T modified protein (human) (UniProt O75015); assay: as above
[9] = target: HNA-1b W131F modified protein (human) (UniProt O75015); assay: as above
[10] = target: HNA-1a W131F modified protein (human) (UniProt O75015); assay: as above
[11] = target: HNA-1b L136A modified protein (human) (UniProt O75015); assay: as above
[12] = target: HNA-1c L136A modified protein (human) (UniProt O75015); assay: as above
[13] = target: Purified HNA-2 protein (CD177) (human) (UniProt Q8N6Q3); assay: as above
[14] = target: HNA-1a L136A modified protein (human) (UniProt O75015); assay: as above
[15] = target: wild type HNA-1a protein (Fc gamma receptor type IIIb, FcγRIIIb, CD16b) (human) (UniProt O75015); assay: Luminex bead assay, protein on microbeads, neat negative serum, PE goat anti-human IgG; non-specific IgG background
[16] = target: HNA-1a K138T modified protein (human) (UniProt O75015); assay: as above
[17] = target: HNA-1a W131F modified protein (human) (UniProt O75015); assay: as above
[18] = target: HNA-1a L136A modified protein (human) (UniProt O75015); assay: as above
[19] = target: HNA-1c K138T modified protein (human) (UniProt O75015); assay: Luminex bead assay, protein on microbeads, negative serum, PE goat anti-human IgG; non-specific IgG background
[20] = target: HNA-1c W131F modified protein (human) (UniProt O75015); assay: as above
[21] = target: wild type HNA-1c protein (Fc gamma receptor type IIIb, FcγRIIIb, CD16b) (human) (UniProt O75015); assay: as above
[22] = target: wild type HNA-1b protein (Fc gamma receptor type IIIb, FcγRIIIb, CD16b) (human) (UniProt O75015); assay: as above
[23] = target: HNA-1b K138T modified protein (human) (UniProt O75015); assay: as above
[24] = target: HNA-1b W131F modified protein (human) (UniProt O75015); assay: as above
[25] = target: HNA-1b L136A modified protein (human) (UniProt O75015); assay: as above
[26] = target: HNA-1c L136A modified protein (human) (UniProt O75015); assay: as above
[27] = target: Purified HNA-4a protein (CD11b) (human) (UniProt P11215); assay: Luminex bead assay, protein on microbeads; reference, 1 by definition
[28] = target: Purified HNA-5a protein (CD11a) (human) (UniProt P20701); assay: as above
[29] = target: Purified HNA-4a protein (CD11b) (human) (UniProt P11215); assay: Luminex bead assay, protein on microbeads; ratio to negative mouse IgG; 6 tests
[30] = target: Purified HNA-5a protein (CD11a) (human) (UniProt P20701); assay: as above

Sequence of UniProt P20701 (P20701 26-1170 limits assumed): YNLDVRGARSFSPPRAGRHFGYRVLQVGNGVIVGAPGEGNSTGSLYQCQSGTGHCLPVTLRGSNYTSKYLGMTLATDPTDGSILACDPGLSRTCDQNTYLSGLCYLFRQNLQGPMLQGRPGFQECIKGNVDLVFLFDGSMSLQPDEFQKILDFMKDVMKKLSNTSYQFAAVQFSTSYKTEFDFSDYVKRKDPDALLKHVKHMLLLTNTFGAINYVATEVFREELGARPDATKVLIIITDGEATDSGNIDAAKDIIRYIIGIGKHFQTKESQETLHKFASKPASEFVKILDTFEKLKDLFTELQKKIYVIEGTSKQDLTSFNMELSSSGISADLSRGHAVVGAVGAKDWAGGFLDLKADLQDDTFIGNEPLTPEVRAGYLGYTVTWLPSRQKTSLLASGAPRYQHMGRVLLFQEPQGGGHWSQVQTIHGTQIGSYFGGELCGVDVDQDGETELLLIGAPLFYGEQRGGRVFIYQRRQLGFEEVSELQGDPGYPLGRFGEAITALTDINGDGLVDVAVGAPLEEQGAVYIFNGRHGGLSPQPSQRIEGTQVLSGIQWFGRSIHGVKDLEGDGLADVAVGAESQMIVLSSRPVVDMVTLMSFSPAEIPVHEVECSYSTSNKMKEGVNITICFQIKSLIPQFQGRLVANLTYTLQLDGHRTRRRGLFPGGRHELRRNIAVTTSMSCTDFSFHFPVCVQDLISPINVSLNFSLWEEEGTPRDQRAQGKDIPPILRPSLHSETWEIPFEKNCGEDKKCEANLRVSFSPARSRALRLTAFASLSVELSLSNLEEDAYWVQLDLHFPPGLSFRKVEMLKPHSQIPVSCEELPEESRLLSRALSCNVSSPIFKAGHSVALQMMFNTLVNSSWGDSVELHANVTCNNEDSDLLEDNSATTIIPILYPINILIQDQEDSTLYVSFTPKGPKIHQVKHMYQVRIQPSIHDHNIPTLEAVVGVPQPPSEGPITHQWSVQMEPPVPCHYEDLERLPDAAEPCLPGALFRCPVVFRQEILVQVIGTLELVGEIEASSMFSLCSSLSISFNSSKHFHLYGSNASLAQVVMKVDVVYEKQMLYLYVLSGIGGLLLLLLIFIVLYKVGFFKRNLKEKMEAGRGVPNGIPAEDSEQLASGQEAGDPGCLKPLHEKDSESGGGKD
Sequence of UniProt Q8N6Q3 (Q8N6Q3 22-408 limits assumed): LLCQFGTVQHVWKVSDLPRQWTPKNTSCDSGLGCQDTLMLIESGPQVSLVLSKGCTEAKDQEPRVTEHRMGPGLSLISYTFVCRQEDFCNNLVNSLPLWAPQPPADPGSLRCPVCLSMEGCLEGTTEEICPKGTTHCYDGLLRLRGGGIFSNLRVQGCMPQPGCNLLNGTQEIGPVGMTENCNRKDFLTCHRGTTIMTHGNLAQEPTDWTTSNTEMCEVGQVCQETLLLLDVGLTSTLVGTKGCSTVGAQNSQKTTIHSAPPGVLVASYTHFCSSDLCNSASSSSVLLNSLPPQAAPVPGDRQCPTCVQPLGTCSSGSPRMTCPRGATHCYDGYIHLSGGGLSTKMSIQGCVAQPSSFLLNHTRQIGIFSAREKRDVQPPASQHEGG
Sequence of UniProt Q8IWA5 (Q8IWA5 whole entry): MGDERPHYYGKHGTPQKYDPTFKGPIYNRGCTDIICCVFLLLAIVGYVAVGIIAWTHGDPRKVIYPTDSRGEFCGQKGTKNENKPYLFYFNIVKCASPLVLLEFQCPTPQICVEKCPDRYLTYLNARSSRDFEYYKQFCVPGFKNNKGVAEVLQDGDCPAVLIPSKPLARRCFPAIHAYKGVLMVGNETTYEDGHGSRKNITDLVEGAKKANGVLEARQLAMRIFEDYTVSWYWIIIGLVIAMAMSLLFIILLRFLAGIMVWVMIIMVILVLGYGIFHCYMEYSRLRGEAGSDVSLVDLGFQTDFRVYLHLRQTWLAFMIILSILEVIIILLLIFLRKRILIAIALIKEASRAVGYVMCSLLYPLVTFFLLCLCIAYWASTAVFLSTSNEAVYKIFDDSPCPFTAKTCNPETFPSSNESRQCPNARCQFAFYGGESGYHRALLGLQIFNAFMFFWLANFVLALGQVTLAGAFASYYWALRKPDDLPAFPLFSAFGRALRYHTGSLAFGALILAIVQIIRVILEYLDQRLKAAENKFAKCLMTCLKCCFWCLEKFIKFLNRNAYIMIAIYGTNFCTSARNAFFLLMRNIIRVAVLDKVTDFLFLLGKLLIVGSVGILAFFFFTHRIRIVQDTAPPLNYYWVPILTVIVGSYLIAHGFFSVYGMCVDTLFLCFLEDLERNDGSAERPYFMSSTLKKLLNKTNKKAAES

- Fold Increased Ratio Against Negative Sera [1]: 1 fold
- Fold Increased Ratio Against Negative Sera [2]: 1 fold
- detection ratio [3]: 1 fold
- Fold Increased Ratio Against Negative Sera [4]: 1 fold
- Fold Increased Ratio Against Negative Sera [5]: 1 fold
- Fold Increased Ratio Against Negative Sera [6]: 1 fold
- Fold Increased Ratio Against Negative Sera [7]: 1 fold
- Fold Increased Ratio Against Negative Sera [8]: 1 fold
- Fold Increased Ratio Against Negative Sera [9]: 1 fold
- Fold Increased Ratio Against Negative Sera [10]: 1 fold
- Fold Increased Ratio Against Negative Sera [11]: 1 fold
- Fold Increased Ratio Against Negative Sera [12]: 1 fold
- detection ratio [13]: 1 fold
- Fold Increased Ratio Against Negative Sera [14]: 1 fold
- Background Value (MFI) [15]: 1910 MFI
- Background Value (MFI) [16]: 450 MFI
- Background Value (MFI) [17]: 417 MFI
- Background Value (MFI) [18]: 290 MFI
- Background Value (MFI) [19]: 126 MFI
- Background Value (MFI) [20]: 181 MFI
- Background Value (MFI) [21]: 1500 MFI
- Background Value (MFI) [22]: 1970 MFI
- Background Value (MFI) [23]: 187 MFI
- Background Value (MFI) [24]: 183 MFI
- Background Value (MFI) [25]: 277 MFI
- Background Value (MFI) [26]: 209 MFI
Substance: Negative Sera (#LSNC) (antibody)

- detection ratio [27]: 1 fold
- detection ratio [28]: 1 fold
Substance: Negative mouse IgG (antibody)

- detection ratio [29]: 594 fold
- detection ratio [30]: 3 fold
Substance: Positive mouse IgG (#ICRF44) (antibody)

- detection ratio [29]: 543 fold
- detection ratio [30]: 5 fold
Substance: Positive mouse IgG (#TS1/18) (antibody)
